# Experimental data published in article PMC12098869, “An mRNA-display derived cyclic peptide scaffold reveals the substrate binding interactions of an N-terminal cysteine oxidase” (Nature Communications, 2025).
# Values joined by “and” are separate entries in the source; they are usually repeats but may differ in a detail not shown here. Equal entries are not always repeated. Bridges are numbered along the chain shown (N, C = ends). Where no end group is shown, it is not given here. Side-chain parts run from the residue outwards. [ ]: non-standard residue; d: D form. Dap = NC[C@H](N)C(=O)O
# T1: 2-aminoethanethiol dioxygenase (ADO), full-length human, N-terminally His-tagged and biotinylated … (human, UniProt Q96SZ5 1-270, biotin (biotinylated during expression, 0.2 mM biotin added))
# T1 construct: 2-aminoethanethiol dioxygenase (ADO), human, UniProt Q96SZ5, full length; Construct used for RaPID screening and all SPR experiments; No tag cleavage step is described in its purification; also called wild type ADO; biotinylated ADO; source: E. coli Rosetta2(DE3), purified (Ni-NTA, SEC); not shown: biotinylation tag (from the vector pQE80L-Navi), N-terminal, kept
# T1 sequence (looked up): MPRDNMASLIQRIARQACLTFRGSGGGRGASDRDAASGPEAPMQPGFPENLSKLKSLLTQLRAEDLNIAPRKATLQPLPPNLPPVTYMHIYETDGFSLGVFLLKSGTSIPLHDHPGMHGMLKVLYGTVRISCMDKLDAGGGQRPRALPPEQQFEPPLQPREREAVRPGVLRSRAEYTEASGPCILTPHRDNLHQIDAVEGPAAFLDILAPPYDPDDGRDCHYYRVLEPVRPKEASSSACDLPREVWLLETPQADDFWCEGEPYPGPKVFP
# T2: 2-aminoethanethiol dioxygenase (ADO), full-length human, N-terminally His-tagged and biotinylated … (human, UniProt Q96SZ5 1-270, biotin (biotinylated during expression, 0.2 mM biotin added))
# T2 construct: 2-aminoethanethiol dioxygenase (ADO), human, UniProt Q96SZ5, full length; Immobilised through its biotin on a Biotin CAP chip for SPR; also called wild type ADO; Biotinylated-ADO; source: E. coli Rosetta2(DE3), purified (Ni-NTA, SEC); not shown: biotinylation tag (from the vector pQE80L-Navi), N-terminal, kept
# T2 sequence (looked up): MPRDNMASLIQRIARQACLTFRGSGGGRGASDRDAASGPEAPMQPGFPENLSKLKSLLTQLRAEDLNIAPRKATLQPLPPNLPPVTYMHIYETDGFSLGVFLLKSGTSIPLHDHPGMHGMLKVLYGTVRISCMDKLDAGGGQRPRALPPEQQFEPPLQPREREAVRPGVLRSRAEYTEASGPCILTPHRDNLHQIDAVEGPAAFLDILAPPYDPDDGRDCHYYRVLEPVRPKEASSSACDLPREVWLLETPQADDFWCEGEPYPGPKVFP
# Tests used:
# [1] = biological target: T1, 2-aminoethanethiol dioxygenase (ADO), …; test: SPR; single cycle kinetic (SCK) analysis, 1:1 binding model; biotinylated ADO immobilised on a Biotin CAP chip (~2500-3000 RU), cyclic peptides injected; 4 °C; 20 mM HEPES pH 7.5, 500 mM NaCl, 10 mM DTT, 0.1% tween-20; 50 μL/minute; settings: both partners purified
# [2] = biological target: T2, 2-aminoethanethiol dioxygenase (ADO), …; test: SPR; single-cycle kinetics (1:1 binding model); biotinylated ADO immobilised on a Biotin CAP chip (~2500-3000 RU), cyclic peptide injected; Biacore T200, 4 °C; 20 mM HEPES pH 7.5, 500 mM NaCl, 10 mM DTT, 0.1% tween-20; 50 µL/minute; each cell is one of three independent measurements; settings: both partners purified
# Method in brief: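 Full-length human ADO carrying a His tag and a biotin label was produced in E. coli and purified first by nickel affinity, then by gel filtration. The protein was loaded onto a Biotin CAP chip in a Biacore T200 to roughly 2500–3000 RU, after which cyclic peptides were passed across the surface at 50 µL/minute and 4 °C in HEPES pH 7.5 buffer containing 500 mM NaCl, DTT and tween-20. Each Kd was obtained by fitting single-cycle kinetic sensorgrams to a 1:1 binding model, based on three independent measurements.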
# [3] = biological target: T1, 2-aminoethanethiol dioxygenase (ADO), …; test: cell-based or functional assay
Kd [1],Kd [2],"IC50 of inhibition of ADO activity (oxidation of RGS5_(2-15), LCMS) [3]",Binder
> 5000 nM,,,"{CH2CO}-YWTLNEGFPRRGRLC (thioether N-15, cyclic peptide selected against ADO by RaPID mRNA display; source: synthetic peptide (solid-phase peptide synthesis)) [cyclic peptide CP3]"
,461 nM and 530 nM and 472 nM,,{CH2CO}-YIVKTFW[Dap]([Lys-Ser])GSHRQC (thioether N-14) [CP6-L8d-Lys-Ser]
66 nM,,950 nM,"{CH2CO}-YIVKTFWLGSHRQC-NH2 (thioether N-14; SMILES CC[C@H](C)[C@@H]1NC(=O)[C@H](Cc2ccc(O)cc2)NC(=O)CSC[C@@H](C(N)=O)NC(=O)[C@H](CCC(N)=O)NC(=O)[C@H](CCCNC(=N)N)NC(=O)[C@H](Cc2c[nH]cn2)NC(=O)[C@H](CO)NC(=O)CNC(=O)[C@H](CC(C)C)NC(=O)[C@H](Cc2c[nH]c3ccccc23)NC(=O)[C@H](Cc2ccccc2)NC(=O)[C@H]([C@@H](C)O)NC(=O)[C@H](CCCCN)NC(=O)[C@H](C(C)C)NC1=O, cyclic peptide selected against ADO by RaPID mRNA display; also called unmodified CP6; source: synthetic peptide (solid-phase peptide synthesis)) [cyclic peptide CP6]"
35 nM,,1720 nM,"{CH2CO}-YTVSTTWLGTHRQC (thioether N-14, cyclic peptide selected against ADO by RaPID mRNA display; Details of synthesis are in the supplementary methods; source: synthetic peptide (solid-phase peptide synthesis)) [cyclic peptide CP1]"
,79.9 nM and 77.7 nM and 78.1 nM,,{CH2CO}-YIVKTFW[Dap]([Phe-Ser])GSHRQC (thioether N-14) [CP6-L8d-Phe-Ser]
> 5000 nM,,> 50000 nM,"{CH2CO}-YRIIRVFRSWVLCPC (thioether N-13, cyclic peptide selected against ADO by RaPID mRNA display; source: synthetic peptide (solid-phase peptide synthesis)) [cyclic peptide CP2]"
,,> 50000 nM,"{CH2CO}-YYYVLGTILVKRYRFC (thioether N-16, cyclic peptide selected against ADO by RaPID mRNA display; source: synthetic peptide (solid-phase peptide synthesis)) [cyclic peptide CP4]"
40 nM,,5680 nM,"{CH2CO}-YITITSWLGTLRQC (thioether N-14, cyclic peptide selected against ADO by RaPID mRNA display; source: synthetic peptide (solid-phase peptide synthesis)) [cyclic peptide CP5]"
4.7 nM,,1730 nM,"{CH2CO}-YTYRYPSILRVWARYGC (thioether N-17, cyclic peptide selected against ADO by RaPID mRNA display; source: synthetic peptide (solid-phase peptide synthesis)) [cyclic peptide CP8]"
